Our source for the EC50 values is patent US20210009686A1 (published 2021).

The test concerns the target CLDN18.2. As to the kind of experiment: FACS binding, KATO III cells. In general terms: A flow cytometer gives signals particle by particle.

B1: IMAB362 (antibody, V domains shown)
VH: QVQLQQPGAELVRPGASVKLSCKASGYTFTSYWINWVKQRPGQGLEWIGNIYPSDSYTNYNQKFKDKATLTVDKSSSTAYMQLSSPTSEDSAVYYCTRSWRGNSFDYWGQGTTLTVSS
VL: DIVMTQSPSSLTVTAGEKVTMSCKSSQSLLNSGNQKNYLTWYQQKPGQPPKLLIYWASTRESGVPDRFTGSGSGTDFTLTISSVQAEDLAVYYCQNDYSYPFTFGSGTKLEIKR
Consider B1, for which the EC50 came out at 0.67 µg/mL.

For orientation: EC50 means the concentration at which the effect is half-maximal. Lower therefore signals higher potency in that assay.
